Residue numbers refer to the chain shown, from its start. In names and notes the source's numbering stands.
B1: Mycobacterium tuberculosis isocitrate lyase (MtbICL) (enzyme)
chain: MSVVGTPKSAEQIQQEWDTNPRWKDVTRTYSAEDVVALQGSVVEEHTLARRGAEVLWEQLHDLEWVNALGALTGNMAVQQVRAGLKAIYLSGWQVAGDANLSGHTYPDQSLYPANSVPQVVRRINNALQRADQIAKIEGDTSVENWLAPIVADGEAGFGGALNVYELQKALIAAGVAGSHWEDQLASEKKCGHLGGKVLIPTQQHIRTLTSARLAADVADVPTVVIARTDAEAATLITSDVDERDQPFITGERTREGFYRTKNGIEPCIARAKAYAPFADLIWMETGTPDLEAARQFSEAVKAEYPDQMLAYNCSPSFNWKKHLDDATIAKFQKELAAMGFKFQFITLAGFHALNYSMFDLAYGYAQNQMSAYVELQEREFAAEERGYTATKHQREVGAGYFDRIATTVDPNSSTTALTGSTEEGQFH
notes: Isocitrate lyase of Mycobacterium tuberculosis, full-length, 428 amino acids per monomer; also called native MtbICL; native protein
B2: MtbICL F345A mutant (MtbICL_(F345A)) (enzyme)
chain: B1 chain with F345A
notes: A small fraction formed aggregate on SEC; also called mutant protein

Target: the molecule itself
Test: SEC; Superdex 200 10/300 GL on AKTA-FPLC, 50 mM phosphate buffer pH 8.0, 100 mM NaCl, 0.5 mL/min, 25 °C; mass read against standard markers (ferritin, catalase, aldolase, ovalbumin)

Row | Protein | stoichiometry N
1 | B1 | 4
2 | B2 | 4

Source: publication PMC5430663, “Distant Phe345 mutation compromises the stability and activity of Mycobacterium tuberculosis isocitrate lyase by modulating its structural flexibility” (Scientific Reports, 2017)
